The target of the assay is vitreous collagen fibrils (rabbit), in the collagen-containing pellet (rabbit (endogenous in rabbit vitreous)). The assay can be described thus: co-sedimentation; vitreous of uninjected rabbit eyes digested with hyaluronan lyase (24 h, 37 °C), centrifuged 13 000g 30 min; opticin in supernatant and collagen-containing pellet quantified by SRM-MS.

The substance “endogenous rabbit opticin (natural protein)” registered a percent of opticin in the collagen-containing pellet of 6%.

These data come from PMC7341526.
